Measured values reported in paper PMC1847702 (PLoS ONE, 2007).

Target: T1, ubiquitin-vinylmethylester (UniProt P0CG48 1-76, vinylmethylester (Michael acceptor) added to the C-terminus)
T1 construct: also called ubiquitin-VME; ubiquitin probe
Assay: covalent adduct formation with electrophilic (activity-based) probe, SDS-PAGE and Coomassie staining
Details: both partners purified

B1: His-tagged elaD, bacterially expressed (enzyme)
chain: MMVTVVSNYCQLSQTQLSQTFAEKFTVTEELLQSLKKTALSGDEESIELLHNIALGYDKFGKEAEDILYHIVRTPTNETLSIIRLIKNACLKLYNLAHIATNSPLKSHDSDDLLFKKLFSPSKLMTIIGDEIPLISEKQSLSKVLLNDENNELSDGTNFWDKNRQLTTDEIACYLQKIAANAKNTQVNYPTGLYVPYSTRTHLEDALNENIKSDPSWPNEVQLFPINTGGHWILVSLQKIVNKKNNKLQIKCVIFNSLRALGYDKENSLKRVINSFNSELMGEMSNNNIKVHLNEPEIIFLHADLQQYLSQSCGAFVCMAAQEVIEQRESNSDSAPYTLLKNHADRFKKYSAEEQYEIDFQHRLANRNCYLDKYGDANINHYYRNLEIKHSQPKNRASGKRVS
notes: also called recombinant elaD
B1: binds.
